The target of this assay is dansyl-CaM (Sigma) (Homo sapiens (Human), UniProt P0DP23 2-149). Kind of assay: fluorescence titration of dansyl-CaM with increasing amounts of peptide.

CRKKYRAIGTFMSVYYKSKKGR (also called synthetic DWF1 CaMBD) [synthetic DWF1 CaM-binding peptide (518-539), CRKKYRAIGTFMSVYYKSKKGR] yielded a Kd of 24.2 nM.

The record behind these values is patent publication US20070089183A1 (WASHINGTON STATE UNIVERSITY, published 2007).
